Results: patent US20070248607A1, “NEGATIVE IMMUNOMODULATION OF IMMUNE RESPONSES BY NKG2D-POSITIVE CD4+ CELLS” (priority 2005, published 2007)
Where a chain is given by its changes, count along the chain named. Names and notes keep the numbering of the source. “Also recorded” adds a separate entry of the source. Peptide text beside a SMILES is read from it.

What was measured:
[1] = system: sMICA shedding by Hela and A375 cells; experiment: Shedding of sMICA by tumor cell lines, ELISA for sMICA; assay type: cell-based; conditions: pharmacological inhibitors; U266, Hela, A375, HCT116 and Lovo cells; concentration-dependent; ELISA
[2] = target: T1, recombinant soluble MICA (rsMICA), unglycosylated, produced in bacteria; ectodomain-only MICA
T1 chain: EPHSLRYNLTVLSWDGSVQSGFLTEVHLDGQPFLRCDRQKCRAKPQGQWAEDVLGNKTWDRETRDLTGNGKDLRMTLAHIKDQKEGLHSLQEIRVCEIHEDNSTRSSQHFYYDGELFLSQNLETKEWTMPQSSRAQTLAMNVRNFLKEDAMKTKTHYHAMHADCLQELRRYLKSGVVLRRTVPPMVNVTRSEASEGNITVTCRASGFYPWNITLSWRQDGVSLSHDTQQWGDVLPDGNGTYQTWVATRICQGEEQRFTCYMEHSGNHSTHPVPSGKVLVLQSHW

[3] = target: the molecule itself; experiment: size exclusion chromatography (self-association)
[4] = target: T2, MICA tetramer (recombinant MICA*001, residues 1-276, produced in transfected 293T cells, conjugated with … (human, UniProt Q29983 24-299, highly glycosylated (293T cells); conjugated with PE-streptavidin); experiment: flow cytometry, PE-streptavidin tetramers on NKL cells
T2 construct: Tags from the Invitrogen expression system are not described; also called MICA tetramers; MICA ligand tetramers
T2 sequence: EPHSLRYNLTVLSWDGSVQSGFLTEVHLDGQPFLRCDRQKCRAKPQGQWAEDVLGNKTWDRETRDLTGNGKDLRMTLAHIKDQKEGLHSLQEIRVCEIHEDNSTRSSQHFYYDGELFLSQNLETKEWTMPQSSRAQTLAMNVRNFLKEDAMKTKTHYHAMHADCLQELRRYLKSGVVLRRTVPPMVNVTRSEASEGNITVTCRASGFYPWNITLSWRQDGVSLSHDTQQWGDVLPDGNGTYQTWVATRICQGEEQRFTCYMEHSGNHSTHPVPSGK

[5] = system: NKG2D- CD4+ T cells; experiment: CD4 T cell proliferation (CFSE dilution, [3H]thymidine incorporation); assay type: cell-based; conditions: anti-CD3 activated CD4 T cell cultures
Procedure: (§1) For analysis of CD4^+ T cell proliferation in conjunction with NKG2D expression, 1×10^7 freshly isolated pure CD4^+ T cells/ml PBS were labeled with an equal volume of 2 μM CFSE (Molecular Probes) for 8 min at room temperature. CFSE was quenched with an equal volume of fetal calf serum for one min followed by three washes with AIM-V medium. CFSE labeled cells were then plated, stimulated and phenotypically analysed as described above. Additional ligands tested in this experimental setting included any of either C1R-MICB, ULBP-1, -2, -3, 4, or -5 transfectants, recombinant soluble MICB, or 5% soluble MIC containing serum from a MIC+ tumor patient and MIC− control serum. To test ligand specificity, ligand containing cultures were treated with either 10 μg/ml 6D4 (anti-MICA/B), 10 μg/ml 3F1 (anti-ULBP-1), or appropriately diluted isotype control immunoglobulins. In some experiments, ligand was replaced by solid-phase anti-NKG2D (1D11) at the concentrations ranging from 5-50 ng/ml. In some experiments, ligand/solid-phase mAb were added on day 1, 2 or 3 after the initiation of culture.
To assess inhibition of CD4^+ T cell proliferation by standard [^3H]thymidine incorporation experiments, freshly isolated pure CD4^+ T cells were plated at 1×10^5 cells/well in a 96 well flat bottom plate containing titrated cross-linked anti-CD3 (see above) or isotype control Ig with or without titrated recombinant soluble MIC. After 72 hrs at 37° C., plates were pulsed with 3 μCi of [^3H]thymidine (Perkin Elmer) for 12 hrs. Plates were harvested and samples analysed by liquid scintillation using Uni-Filter GF/C plates and a TopCount Counter (both from Packard). Counts from triplicates were averaged.

[6] = system: NKG2D+ CD4+ T cells; experiment: NKG2D expression and expansion of activated CD4 T cells; assay type: cell-based; conditions: anti-CD3 activated CD4 T cell cultures
Procedure: For the analysis of NKG2D expression in activated CD4 T cells, freshly isolated pure CD4^+ T cells were plated at 0.3×10^6/2 ml AIM-V medium (Gibco)/well in 24 well plates for various periods of time with or without the presence of mitogenic stimuli and/or the presence of NKG2D ligands. Mitogenic stimuli included either cross-linked anti-CD3 (plates were first coated with AffiniPure F(ab′)2 fragment goat anti-mouse IgG1, Fcγ fragment specific (Jackson ImmunoResearch Laboratories, Inc.) at 10 μg/ml in PBS over night at 4° C. followed by a 4 hr room temperature incubation with anti-CD3 (OKT3, Orthoclone, Ortho Biotech Products, L.P.) at 50 ng/ml (if not indicated otherwise), PHA (5 μg/ml), or PMA/Ionomycin. Ligand additions consisted of either irradiated CLR-MICA and control transfectants at a T cell:transfectant ratio of 5:1, or recombinant soluble MICA at 25 ng/ml if not indicated otherwise. Cells were harvested at various time points after the initiation of culture and tested for NKG2D, CD4 and CD3 coexpression using directly conjugated mAbs for standard three color flow cytometry.
as §1

[7] = target: T3, MICA (Homo sapiens, UniProt Q29983); experiment: ERP5 activity assay, disulfide reduction (non-reducing SDS-PAGE); assay type: biochemical; conditions: ectodomain MICA substrate, room temperature, 1 h or 3 h, no reducing agent
T3 sequence (Q29983 24-299): T2 sequence

[8] = target: T4, MICA (Homo sapiens, UniProt Q29983); experiment: as above; assay type: biochemical; conditions: isolated α3 domain (residues 187-274)
T4 sequence (Q29983 210-297): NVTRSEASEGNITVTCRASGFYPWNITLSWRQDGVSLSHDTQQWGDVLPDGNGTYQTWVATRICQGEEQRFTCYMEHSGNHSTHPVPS

CC[C@H](C)[C@H](N)C1=N[C@H](C(=O)N[C@@H](CC(C)C)C(=O)N[C@H](CCC(=O)O)C(=O)N[C@H](C(=O)N[C@H]2CCCCNC(=O)[C@H](CC(N)=O)NC(=O)[C@@H](CC(=O)O)NC(=O)[C@H](Cc3cnc[nH]3)NC(=O)[C@@H](Cc3ccccc3)NC(=O)[C@H]([C@@H](C)CC)NC(=O)[C@@H](CCCN)NC2=O)[C@@H](C)CC)CS1 [bacitracin] (HELM PEPTIDE1{[CC[C@H](C)[C@H](N)C1=N[C@H](C(=O)[*:2])CS1].L.[dE].I.K.[NCCC[C@@H](N[*:1])C(=O)[*:2]].I.[dF].H.[dD].N}$PEPTIDE1,PEPTIDE1,5:R3-11:R2$$$V2.0)
shedding of sMICA [1]: markedly reduced; also recorded: Inhibition of sMICA shedding; also recorded: reduce shedding of sMICA

O=C(O)c1cc(SSc2ccc([N+](=O)[O-])c(C(=O)O)c2)ccc1[N+](=O)[O-] [DTNB, 5,5-dithiobis-(2-nitrobenzoic acid)]
shedding of sMICA [1]: markedly reduced; also recorded: Inhibition of sMICA shedding; also recorded: reduce shedding of sMICA

B1: ERP5 fragment 1-118 (N-terminal thioredoxin-like domain), bacterially produced, N-terminal hexahistidine (enzyme, UniProt Q15084 20-137, looked up)
chain: LYSSSDDVIELTPSNFNREVIQSDSLWLVEFYAPWCGHCQRLTPEWKKAATALKDVVKVGAVDADKHHSLGGQYGVQGFPTIKIFGSNKNRPEDYQGGRTGEAIVDAALSALRQLVKD
notes: Numbers count on the mature protein; also called N-terminal ERP5 polypeptide fragment; not shown: N-terminal hexahistidine tract
disulfide bond reduction of MICA (non-reducing SDS-PAGE) [2]: only the N-terminal domain displayed functional activity
binding result [3]: no binding

B2: ERP5 fragment 135-421, bacterially produced, N-terminal hexahistidine (enzyme, UniProt Q15084 154-440, looked up)
chain: SDSSSKKDVIELTDDSFDKNVLDSEDVWMVEFYAPWCGHCKNLEPEWAAAASEVKEQTKGKVKLAAVDATVNQVLASRYGIRGFPTIKIFQKGESPVDYDGGRTRSDIVSRALDLFSDNAPPPELLEIINEDIAKRTCEEHQLCVVAVLPHILDTGAAGRNSYLEVLLKLADKYKKKMWGWLWTEAGAQSELETALGIGGFGYPAMAAINARKMKFALLKGSFSEQGINEFLRELSFGRGSTAPVGGGAFPTIVEREPWDGRDGELPVEDDIDLSDVELDDLGKDEL
notes: range 135-421; Numbers count on the mature protein; also called ERP5 135-421; not shown: N-terminal hexahistidine tract
disulfide bond reduction of MICA (non-reducing SDS-PAGE) [2]: only the N-terminal domain displayed functional activity
binding result [3]: no binding

B3: ERP5 fragment 1-118 C36S mutant (protein)
chain: B1 chain with C36S
disulfide bond reduction of MICA (non-reducing SDS-PAGE) [2]: C36S showed no activity on MICA substrate

B4: NKG2D (on NKL NK cells and on CD4+ T cells) (receptor, human, UniProt P26718 1-216, looked up)
chain: MGWIRGRRSRHSWEMSEFHNYNLDLKKSDFSTRWQKQRCPVVKSKCRENASPFFFCCFIAVAMGIRFIIMVTIWSAVFLNSLFNQEVQIPLTESYCGPCPKNWICYKNNCYQFFDESKNWYESQASCMSQNASLLKVYSKEDQDLLKLVKSYHWMGLVHIPTNGSWQWEDGSILSPNLLTIIEMQKGDCALYASSFKGYIENCSTPNTYICMQRTV
notes: whole, on cells; also called NKG2D receptor
binding result [4]: binds

B5: soluble MIC: recombinant soluble MIC ligand of NKG2D (protein)
chain: T2 sequence
proliferation of NKG2D- CD4+ T cells [5]: dramatically inhibited
expansion / proliferation of NKG2D+ CD4+ T cells [6]: enhanced

B6: soluble MICB: recombinant soluble MICB, NKG2D ligand (protein)
chain: EPHSLRYNLMVLSQDGSVQSGFLAEGHLDGQPFLRYDRQKRRAKPQGQWAEDVLGAETWDTETEDLTENGQDLRRTLTHIKDQKGGLHSLQEIRVCEIHEDSSTRGSRHFYYNGELFLSQNLETQESTVPQSSRAQTLAMNVTNFWKEDAMKTKTHYRAMQADCLQKLQRYLKSGVAIRRTVPPMVNVTCSEVSEGNITVTCRASSFYPRNITLTWRQDGVSLSHNTQQWGDVLPDGNGTYQTWVATRIRQGEEQRFTCYMEHSGNHGTHPVPSGK
proliferation of NKG2D- CD4+ T cells [5]: Growth inhibition

B7: C36S: C36S active site mutant of ERP5 fragment 1-118 (protein)
chain: B1 chain with C36S
modifications: left off: small tags and cut ends
reduction of MICA disulfide bonds [7]: no activity

B8: C39S: C39S active site mutant of ERP5 fragment 1-118 (protein)
chain: B1 chain with C39S
modifications: left off: small tags and cut ends
reduction of MICA disulfide bonds [7]: formed a trapped disulfide-linked intermediate
reduction of MICA disulfide bonds ([7]; listed as C39S mutant of ERP5 fragment 1-118): disulfide-linked heterodimers
reduction of the MICA α3 domain disulfide bond ([8]; listed as ERP5 1-118 C39S mutant polypeptide): reduces the α3 domain disulfide bond of MICA
reduction of the MICA α3 domain disulfide bond ([8]; listed as ERP5 1-118 polypeptide fragment with the C39S mutation): unresolved mixed disulfide heterodimer

B9: ERP5 fragment 1-118: N-terminal thioredoxin-like domain fragment of ERP5, residues 1-118 (protein)
chain: B1 chain
modifications: left off: small tags and cut ends
reduction of MICA disulfide bonds [7]: partially reduced
